Paper PMC4775432 (2015)

Target: T1, KRAS G12D peptide on HLA-A*11:01 (human)
T1 peptide: VVGADGVGK
Assay: cytokine release

binding result: no recognition
B1: TRAV4-4*01/BV12-2*01 (TCR)
alpha TRAV4-4/DV10*01 49*01 CDR3: CAADSSNTGYQNFYF
beta TRBV12-2*01 1-2*01 CDR3: CASSLTDPLDSDYTF
